From patent publication EP1736482A1 (INSERM (Institut National de la Santé et de la Recherche …, dated 2006) come the findings set out here.

This assay has as its target T1, recombinant human 4-1BB-Fc chimera (R&D Systems) (human, UniProt Q07011 24-186).
T1 construct: Bought; Covalently coupled to a CM5 chip at 500 resonance units; also called 4-IBB-Fc; recombinant 4-1BB; Fc part of the bought chimera not given, not described
The experiment in a line: SPR (BIAcore 2000), 4-1BB-Fc coupled to CM5 chip, ligand in flow, 25°C. A general note: In SPR one partner is held on a chip, and binding of the other changes the refractive index at the surface.

What is called Kd is the equilibrium constant for the complex coming apart. Broadly, the koff is a measure of how fast the partners let go of each other. By kon is commonly meant the second-order rate constant of association.

B1: FLAG-4-1BBL (Alexis), FLAG peptide coupled to the TNF homology domain of human 4-1BBL through an undefined 11 aa linker (ligand, UniProt P41273 93-254, looked up)
chain: AQLVAQNVLLIDGPLSWYSDPGLAGVSLTGGLSYKEDTKELVVAKAGVYYVFFQLELRRVVAGEGSGSVSLALHLQPLRSAAGAAALALTVDLPPASSEARNSAFGFQGRLLHLSAGQRLGVHLHTEARARHAWQLTQGATVLGLFRVTPEIPAGLPSPRSE
notes: domain: TNF homology domain (THD); Bought from Alexis, produced in HEK293; also called FLAG-tagged 4-1BBL; soluble FLAG-4-1BBL; not shown: FLAG peptide (8aa); undefined 11aa linker
Regarding B1, the Kd is 55.2 nM, the “fold lower association rate (kon) against WT AviTag-4-1BBL” value was 30 fold, the koff was determined as 0.00037 s⁻¹ and the kon was found to be 6700 M⁻¹ s⁻¹.
